For the data set, the target named is T1, Znf706 A2C-AF488 (Homo sapiens, UniProt Q9Y5V0 1-76, A2C).
T1 sequence: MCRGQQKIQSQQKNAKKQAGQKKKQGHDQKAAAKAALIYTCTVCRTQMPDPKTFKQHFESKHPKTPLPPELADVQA
Description: fluorescence anisotropy; 20 mM NaPi, 100 mM KCl, 0.05% NaN3, pH 7.4, 25 C (FP/anisotropy); unfolded G4: 20 mM Tris-HCl, 100 mM LiCl, pH 7.4; G4C2 also 20 mM NaPi, 100 mM NaCl, pH 7.4; NMR at 4 C or 37-50 C with 7.5% D2O. Conditions: protein: recombinant; tags: AF488 label on Cys; His6-SUMO cleaved. A general note: In fluorescence polarisation assays a small probe gives low polarisation when free and higher when bound to something large.

B1: polyA (ssDNA)
DNA: AAAAAAAAAAAAAAAAAAAA
Consider B1, for which the binding result was “no binding”.

B2: polyT (ssDNA)
DNA: TTTTTTTTTTTTTTTTTTTT
With B2, the binding result was “no binding”.

Values taken from paper doi:10.1101/2023.09.21.558871, “Protein G-quadruplex interactions and their effects on phase transitions and protein aggregation”.
